Assay results taken from patent US20250282868A1 (ITEOS BELGIUM, published 2025).

T1: human TREM2 (human, UniProt Q9NZC2 19-230)
T1 sequence: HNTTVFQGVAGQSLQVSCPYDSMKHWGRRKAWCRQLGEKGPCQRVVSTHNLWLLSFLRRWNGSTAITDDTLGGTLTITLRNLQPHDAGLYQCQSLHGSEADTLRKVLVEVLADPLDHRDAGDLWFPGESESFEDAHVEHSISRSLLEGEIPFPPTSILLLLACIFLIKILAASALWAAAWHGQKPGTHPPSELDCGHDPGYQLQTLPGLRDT

T2: mouse TREM2 (mouse, UniProt Q99NH8 19-227)
T2 construct: whole, on cells
T2 sequence (looked up): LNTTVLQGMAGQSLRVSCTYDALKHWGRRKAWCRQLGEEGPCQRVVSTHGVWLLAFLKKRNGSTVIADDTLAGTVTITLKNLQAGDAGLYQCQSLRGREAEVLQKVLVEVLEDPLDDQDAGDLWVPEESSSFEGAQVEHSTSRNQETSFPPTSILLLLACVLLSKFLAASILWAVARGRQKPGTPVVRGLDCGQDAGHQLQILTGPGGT

T3: cynomolgus TREM2 (cynomolgus, UniProt A0A2K5UY34 49-260)
T3 construct: also called cynoTREM2; cTREM2
T3 sequence: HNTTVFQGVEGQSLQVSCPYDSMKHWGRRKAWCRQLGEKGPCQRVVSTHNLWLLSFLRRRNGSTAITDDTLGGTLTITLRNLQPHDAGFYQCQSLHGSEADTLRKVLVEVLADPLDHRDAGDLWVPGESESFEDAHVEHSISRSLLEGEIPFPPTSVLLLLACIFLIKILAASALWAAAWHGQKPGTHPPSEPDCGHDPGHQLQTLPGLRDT


Tests used:
[1] = biological target: T1, human TREM2; experiment: cell-based or functional assay
[2] = biological target: T1, human TREM2; experiment: flow cytometry, M2a-like macrophages, dose-response
Protocol: (§1) M2a-like macrophages were produced in vitro from monocytes of healthy donors. Briefly, after PBMCs isolation from peripheral blood using Lymphoprep™ gradient, CD14+ cells were purified and seeded in presence of MCSF 50 ng/ml for 6 days. Macrophages were then cultured with IL-13 and IL-4 at a concentration of 20 ng/ml for two additional days and then used for a cell-based binding assay.
(§2) M2a-like macrophages were incubated with anti-TREM2 antibodies (dose-response curve with 11 concentrations from 10 μg/ml to 0.0001 μg/ml) for 30 min at 4° C. After washing, bound antibodies were detected with a secondary anti-human IgG Fc PE-labelled for 30 min at 4° C. Fluorescence intensity was measured by flow cytometry. Equilibrium dissociation constant (kD) was then calculated for each antibody using median MFI normalized over isotype control.

[3] = biological target: T2, mouse TREM2; experiment: MFI on CT26 cells over-expressing mouse TREM2 and DAP12; column 'Considered cross-reactive'
Protocol: (§3) Cross-reactivity to mouse TREM2 was assessed using CT26 cells over-expressing mouse TREM2 and DAP12 (Table 23). Eight anti-TREM2 antibodies and both benchmark antibodies were considered cross-reactive to mouse TREM2 (MFI higher than isotype control and fold change of CT26-TREM2 over the CT26 Empty Vector higher than 5). The remaining anti-TREM2 antibodies were considered as being low to not cross-reactive (fold change less than 5). EOS006171 was not tested due to clear non-cross-reactivity preliminary data by octet (data not shown).

[4] = biological target: T3, cynomolgus TREM2; experiment: MFI on CHO cells over-expressing cynoTREM2-DAP12
Protocol: (§4) Cross-reactivity of anti-TREM2 antibodies to cynomolgus TREM2 (cynoTREM2) was assessed using CHO over-expressing cynoTREM2-DAP12 (Table 22). Benchmark antibodies, AB52 and PN-37012, were examined for comparison.

[5] = biological target: T1, human TREM2; experiment: flow cytometry, THP-1 WT cells, 10 ug/ml
Protocol: (§5) In order to test specificity of selected antibodies to TREM2, binding was tested by flow cytometry on THP-1 TREM2 KO (clone, produced using CRISPR technology in house) and on THP-1 WT. Cells were incubated with selected anti-TREM2 antibodies (final concentration of 10 μg/ml) for 30 min at 4° C. After washing, bound antibodies were detected with a secondary anti-human IgG Fc PE-labelled for 30 min at 4° C. Fluorescence intensity was measured by flow cytometry.

[6] = biological target: T3, cynomolgus TREM2; experiment: MFI on CHO cells over-expressing cynoTREM2-DAP12 vs CHO empty vector
Protocol: as §4

[7] = biological target: T1, human TREM2; experiment: flow cytometry, M2a-like macrophages
Protocol: as §1, §2

[8] = biological target: T2, mouse TREM2; experiment: MFI on CT26 cells over-expressing mouse TREM2 and DAP12
Protocol: as §3

[9] = biological target: T2, mouse TREM2; experiment: MFI on CT26 cells over-expressing mouse TREM2 and DAP12 vs CT26 empty vector
Protocol: as §3

[10] = biological target: T1, human TREM2; experiment: cell-based or functional assay; remark: listed apart in the source
[11] = biological target: T1, human TREM2; experiment: flow cytometry, THP-1 WT vs THP-1 TREM2 KO cells, 10 ug/ml
Protocol: as §5

[12] = biological target: T1, human TREM2; experiment: flow cytometry, competition with LDL-Alexafluor-488 on CHO cells overexpressing human TREM2/DAP12
Protocol: Exemplary anti-TREM2 antibodies were tested in order to characterize their ability to enter in competition with TREM2 ligand, LDL, on CHO overexpressing human TREM2/DAP12. Antibodies (dose response curves from 66.65 nM to 0.07 nM) were incubated for 30 min with cells in a soluble fashion, followed by an incubation with LDL coupled with Alexafluor-488 (at 1 μg/mL final) for 30 min. Finally, after 2 washes, cells were acquired on flow cytometer. The median MFI of Alexafluor-488 was used to plot the graphs. Benchmark antibody MOR044746 was used as positive control.

Binder	Stabilization ratio (Mean of 2 replicates) [1]	Kd [2]	Binding to CHO-cTREM2 MFI [4]	Fold over isotype control THP1 WT [5]	MFI Fold change (CHO-cTREM2 over CHO-EV) [6]	Fold over isotype [7]	Binding to CT26-TREM2 MFI [8]	MFI Fold change (CT26-TREM2 over CT26-EV) [9]	Fold over isotype control at 66 nM [10]	pSYK/TotSYK EC50 (nM) [10]	MFI Fold change (THP-1 WT over THP-1 TREM2 KO) [11]	IC50 [12]	binding result [3]
EOS006167 (antibody, V domains shown) VH: not shown VL: EIVLTQSPGTLSLSPGERATLSCRASQSVSSSYLAWYQQKPGQAPRLLIYGASSRATGIPDRFSGSGSGTDFTLTISRLEPEDFAVYYCQQYDDVPYTFGGGTKVEIK	0.82 ratio	10.2 nM	7220 MFI	2.1 fold	128 fold	1.6 fold	2060 MFI	4.7 fold	1.57 fold	49.9 nM	2.2 fold	–	no binding (tested: fold change less than 5)
EOS006168 (antibody, V domains shown) VH: not shown VL: EIVLTQSPGTLSLSPGERATLSCRASQSVSSSFLAWYQQKPGQAPRLLIYGASSRATGIPDRFSGSGSGTDFTLTISRLEPEDFAVYYCQQYYSPPITFGGGTKVEIK	0.8 ratio	2.99 nM	194 MFI	3 fold	3.3 fold	1.9 fold	655 MFI	1.6 fold	1.99 fold	96 nM	2.3 fold	–	no binding (tested: fold change less than 5)
EOS006170 (antibody, V domains shown) VH: QVQLQESGPGLVKPSGTLSLTCAVSGGSISSSNWWSWVRQPPGKGLEWIGEIYHSGSTNYNPSLKSRVTISVDKSKNQFSLKLSSVTAADTAVYYCARDTKYQAGMDVWGQGTTVTVSS VL: DIQMTQSPSSLSASVGDRVTITCQASQDISNYLNWYQQKPGKAPKLLIYDASNLATGVPSRFSGSGSGTDFTFTISSLQPEDIATYYCQQYVVFPTFGGGTKVEIK	0.57 ratio	8.2 nM	1650 MFI	2.3 fold	42.8 fold	1.1 fold	322 MFI	1 fold	1.31 fold	–	3.2 fold	–	no binding (tested: fold change less than 5)
EOS006177 (antibody, V domains shown) VH: QVQLQESGPGLVKPSGTLSLTCAVSGGSISDSAWWSWVRQPPGKGLEWIGEIYHDADTNYNPSLKSRVTISVDKSKNQFSLKLSSVTAADTAVYYCARDTKYWGGMDVWGQGTTVTVSS VL: DIQMTQSPSSLSASVGDRVTITCQASQDISNYLNWYQQKPGKAPKLLIYDASNLATGVPSRFSGSGSGTDFTFTISSLQPEDIATYYCQQYVEAPTFGGGTKVEIK	0.44 ratio	0.19 nM	19600 MFI	3.3 fold	355 fold	17.3 fold	8680 MFI	21.4 fold	0.95 fold	–	6.8 fold	0.195 nM	–

Now from value to binder, other results behind:

Stabilization ratio (Mean of 2 replicates) [1]	Kd [2]	Binding to CHO-cTREM2 MFI [4]	Fold over isotype control THP1 WT [5]	MFI Fold change (CHO-cTREM2 over CHO-EV) [6]	Fold over isotype [7]	Binding to CT26-TREM2 MFI [8]	MFI Fold change (CT26-TREM2 over CT26-EV) [9]	Fold over isotype control at 66 nM [10]	pSYK/TotSYK EC50 (nM) [10]	MFI Fold change (THP-1 WT over THP-1 TREM2 KO) [11]	IC50 [12]	Binder	binding result [3]
–	–	–	–	–	–	1890 MFI	1.8 fold	–	–	–	–	EOS006180 (antibody, V domains shown) VH: not shown VL: EIVLTQSPGTLSLSPGERATLSCRASQSVSSSFLAWYQQKPGQAPRLLIYGASSRATGIPDRFSGSGSGTDFTLTISRLEPEDFAVYYCQQYYGLPITFGGGTKVEIK	no binding (tested: fold change less than 5)
0.55 ratio	0.32 nM	14200 MFI	3.7 fold	277 fold	12.9 fold	6540 MFI	21.4 fold	1.16 fold	–	4.3 fold	0.265 nM	EOS006164 (antibody, V domains shown) VH: EVQLVESGGGLVQPGRSLRLSCTASGFTFDDYTMSWFRQAPGKGLEWVGFIGSKAYSATTEYTASVKGRFTISRDGSKSIAYLQMNSLKTEDTAVYYCARGKRYSYTYWTPAFDVWGQGTMVTVSS VL: DIQMTQSPSSLSASVGDRVTITCQASQDITNYLNWYQQKPGKAPKLLIYDASNLETGVPSRFSGSGSGTDFTFTISSLQPEDIATYYCQEYDSYITFGGGTKVEIK	–
0.41 ratio	0.3 nM	14000 MFI	3.3 fold	329 fold	8.2 fold	3940 MFI	11 fold	1.34 fold	1.08 nM	3.3 fold	0.145 nM	EOS006173 (antibody, V domains shown, also called EOS061730) VH: EVQLVESGGGLVQPGRSLRLSCTASGFTFGDYAMSWFRQAPGKGLEWVGFIGSKAYGGTTEYTASVKGRFTISRDGSKSIAYLQMNSLKTEDTAVYYCARGKRRDYGYWHPAFDVWGQGTMVTVSS VL: DIQMTQSPSSLSASVGDRVTITCQASQDITNYLNWYQQKPGKAPKLLIYDASNLETGVPSRFSGSGSGTDFTFTISSLQPEDIATYYCQEYDQYLTFGGGTKVEIK	–
0.46 ratio	0.09 nM	15700 MFI	4 fold	323 fold	14.9 fold	10100 MFI	34.3 fold	0.897 fold	–	5.1 fold	0.3 nM	EOS006174 (antibody, V domains shown) VH: EVQLVESGGGLVQPGRSLRLSCTASGFTFGEYTMSWFRQAPGKGLEWVGFIGSKAYAGTTEYTASVKGRFTISRDGSKSIAYLQMNSLKTEDTAVYYCARGKRYSYGGWVPAFDVWGQGTMVTVSS VL: DIQMTQSPSSLSASVGDRVTITCQASQDITNYLNWYQQKPGKAPKLLIYDASNLETGVPSRFSGSGSGTDFTFTISSLQPEDIATYYCQEYDSYLAFGGGTKVEIK	–
